The source of these data is paper PMC9371925 (Nucleic Acids Research, 2022).

In data set [1] the target is Streptomyces coelicolor zinc uptake regulator (ScZur) (Streptomyces coelicolor M145). Nature of the data set: cryo-EM structure.
Data set [2] deals with T1, ScZur (Streptomyces coelicolor M145, UniProt Q9L2H5 1-139).
T1 sequence: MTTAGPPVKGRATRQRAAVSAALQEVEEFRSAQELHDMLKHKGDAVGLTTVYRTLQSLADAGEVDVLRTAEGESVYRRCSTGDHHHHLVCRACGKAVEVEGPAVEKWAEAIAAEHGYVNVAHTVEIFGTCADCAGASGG
Briefly: EMSA. (In general: Mobility shift assays separate free from complexed probe on a gel.)

Data set [3] concerns the target T1, ScZur. Briefly: EMSA. The source holds these as a separate data set.
The data set “cryo-EM structure” concerns the molecule itself. Briefly: cryo-EM structure.

Where a chain is given by its changes, count along the chain named. Several values for one entry are separate records, joined by “and”; a condition that tells them apart may be missing. Equal values may be shown once. Read-outs that look alike come from different tables or passages of the source.

As to “Streptomyces coelicolor zinc uptake regulator (ScZur) (natural protein)”, the stoichiometry N (usually the number of molecules, sites or subunits per partner or assembly) in data set [1] is 6 and 4.

B1: zitB Zur-box 33 bp (-68 to -36) (dsDNA)
DNA 1: CAAGGCACATGACAACGGTGTTCAGTGCCGCGT
DNA 2: ACGCGGCACTGAACACCGTTGTCATGTGCCTTG
In the case of B1, in the data set with ScZur [2], the affinity, expressed as Kd, was 34 ± 0.7 nM.

B2: M2 33 bp (dsDNA)
DNA 1: B1 DNA 1 with G11C, G17T, C23G
DNA 2: B1 DNA 2 with G11C, C17A, C23G
Consider B2, for which, in the data set with ScZur [3], the Kd (usually a measure of binding affinity in units of concentration) was 223 ± 30.5 nM.

B3: Streptomyces coelicolor RNA polymerase α subunit (natural protein, Streptomyces coelicolor M145)
chain: MLIAQRPSLTEEVVDEFRSRFVIEPLEPGFGYTLGNSLRRTLLSSIPGAAVTSIRIDGVLHEFTTVPGVKEDVTDLILNIKQLVVSSEHDEPVVMYLRKQGPGLVTAADIAPPAGVEVHNPDLVLATLNGKGKLEMELTVERGRGYVSAVQNKQVGQEIGRIPVDSIYSPVLKVTYKVEATRVEQRTDFDKLIVDVETKQAMRPRDAMASAGKTLVELFGLARELNIDAEGIDMGPSPTDAALAADLALPIEELELTVRSYNCLKREGIHSVGELVARSEADLLDIRNFGAKSIDEVKAKLAGMGLALKDSPPGFDPTAAADAFGADDDADAGFVETEQY
Turning to B3, in the data set “cryo-EM structure”, the binding result is given as “binds”.
